Results: US20210172932A1 (published 2021)

Target: T1, human FcRn (immobilized on nickel-nitrilotriacetic acid-coated biosensors) (human, UniProt P55899 24-297; P61769 21-119)
T1 construct: also called neonatal Fc receptor
Test: BLI (Octet RED), FcRn on Ni-NTA biosensor, pH 6.0

| Binder | Kd [nM] |
| --- | --- |
| Vedolizumab (antibody) chain 1: not shown chain 2: DVVMTQSPLSLPVTPGEPASISCRSSQSLAKSYGNTYLSWYLQKPGQSPQLLIYGISNRFSGVPDRFSGSGSGTDFTLKISRVEAEDVGVYYCLQGTHQPYTFGQGTKVEIKRTVAAPSVFIFPPSDEQLKSGTASVVCLLNNFYPREAKVQWKVDNALQSGNSQESVTEQDSKDSTYSLSSTLTLSKADYEKHKVYACEVTHQGLSSPVTKSFNRGEC | 610 |
| Pembrolizumab (antibody) chain 1: not shown chain 2: EIVLTQSPATLSLSPGERATLSCRASKGVSTSGYSYLHWYQQKPGQAPRLLIYLASYLESGVPARFSGSGSGTDFTLTISSLEPEDFAVYYCQHSRDLPLTFGGGTKVEIKRTVAAPSVFIFPPSDEQLKSGTASVVCLLNNFYPREAKVQWKVDNALQSGNSQESVTEQDSKDSTYSLSSTLTLSKADYEKHKVYACEVTHQGLSSPVTKSFNRGEC | 290 |
| Emicizumab (bispecific antibody) chain 1: DIQMTQSPSSLSASVGDRVTITCKASRNIERQLAWYQQKPGQAPELLIYQASRKESGVPDRFSGSRYGTDFTLTISSLQPEDIATYYCQQYSDPPLTFGGGTKVEIKRTAAAPSVFIFPPSDEQLKSGTASVVCLLNNFYPREAKVQWKVDNALQSGNSQESVTEQDSKDSTYSLSSTLTLSKADYEKHKVYACEVTHQGLSSPVTKSFNRGEC chain 2: QVQLVESGGGLVQPGGSLRLSCAASGFTFSYYDIQWVRQAPGKGLEWVSSISPSGQSTYYRREVKGRFTISRDNSKNTLYLQMNSLRAEDTAVYYCARRTGREYGGGWYFDYWGQGTLVTVSSASTKGPSVFPLAPCSRSTSESTAALGCLVKDYFPEPVTVSWNSGALTSGVHTFPAVLQSSGLYSLSSVVTVPSSSLGTQTYTCNVDHKPSNTKVDKRVESKYGPPCPPCPAPEFLGGPSVFLFPPKPKDTLMISRTPEVTCVVVDVSQEDPEVQFNWYVDGVEVHNAKTKPREEQYNSTYRVVSVLTVLHQDWLNGKEYKCKVSNKGLPSSIEKTISKAKGQPREPQVYTLPPSQKEMTKNQVSLTCLVKGFYPSDIAVEWESNGQPENNYKTTPPVLDSDGSFFLYSKLTVDKSRWQEGNVFSCSVMHEALHNRYTQKSLSLSPEQKLISEEDLNAVGQDTQEVIVVPHSLPFKVVVISAILALVVLTIISLIILIMLWQKKPR chain 3: QVQLVQSGSELKKPGASVKVSCKASGYTFTDNNMDWVRQAPGQGLEWMGDINTRSGGSIYNEEFQDRVIMTVDKSTDTAYMELSSLRSEDTATYHCARRKSYGYYLDEWGEGTLVTVSSASTKGPSVFPLAPCSRSTSESTAALGCLVKDYFPEPVTVSWNSGALTSGVHTFPAVLQSSGLYSLSSVVTVPSSSLGTQTYTCNVDHKPSNTKVDKRVESKYGPPCPPCPAPEFLGGPSVFLFPPKPKDTLMISRTPEVTCVVVDVSQEDPEVQFNWYVDGVEVHNAKTKPREEQYNSTYRVVSVLTVLHQDWLNGKEYKCKVSNKGLPSSIEKTISKAKGQPREPQVYTLPPSQEEMTKNQVSLTCLVKGFYPSDIAVEWESNGQPENNYKTTPPVLDSDGSFFLYSKLTVDKSRWQEGNVFSCSVMHEALHNHYTQESLSLSPEQKLISEEDLNAVGQDTQEVIVVPHSLPFKVVVISAILALVVLTIISLIILIMLWQKKPR | 1230 |
| Tocilizumab (antibody) chain 1: not shown chain 2: not shown | 460 |
